# Results published in the Human Domainome abundance scans (Beltran et al. 2025).
# ± gives the uncertainty stated by the source.
# B1: Membrane-associated guanylate kinase, WW and PDZ domain-containing protein 1, residues 352 to 401; numbered along this chain, Q96QZ7 (parent)
# chain: TEELDSELELPAGWEKIEDPVYGIYYVDHINRKTQYENPVLEAKRKKQLE
# Variants of: B1
# Experiment: abundance fitness (aPCA) (normalised: wild type 0, dead -1); higher = more abundant; growth selection in yeast, the domain comes from the species named
# Conditions: Homo sapiens
row,Variant,abundance fitness
1,L41S,-0.011 ± 0.055
2,L41I,-0.324 ± 0.11
3,L41Q,0.001 ± 0.044
4,L41W,-0.114 ± 0.042
5,N31A,-0.188 ± 0.051
6,N31L,-0.325 ± 0.041
7,N31F,-0.784 ± 0.15
8,N31V,-0.756 ± 0.055
9,N31Y,-0.671 ± 0.085
10,N31K,-0.265 ± 0.093
11,N31Q,-0.388 ± 0.12
12,N31S,-0.135 ± 0.064
13,D28E,-0.696 ± 0.065
14,D28K,-0.764 ± 0.13
15,D28Y,-0.861 ± 0.24
16,D28P,-0.855 ± 0.14
17,D28H,-0.634 ± 0.048
18,K33Y,-0.331 ± 0.09
19,K33S,-0.222 ± 0.059
20,K33V,-0.028 ± 0.044
21,K33I,-0.291 ± 0.083
22,K33P,-0.815 ± 0.13
23,Q35A,-0.26 ± 0.046

row,Variant,abundance fitness
1,Q35F,-0.68 ± 0.27
2,Q35R,-0.334 ± 0.051
3,Q35I,-0.571 ± 0.2
4,Q35L,-0.423 ± 0.045
5,K16A,-0.474 ± 0.087
6,K16V,-0.292 ± 0.052
7,K16Y,-0.902 ± 0.18
8,K16Q,-0.2 ± 0.1
9,K16G,-0.561 ± 0.045
10,K16S,-0.445 ± 0.044
11,K16T,-0.49 ± 0.08
12,K16L,-0.447 ± 0.079
13,A43H,-0.161 ± 0.087
14,A43V,-0.131 ± 0.042
15,A43G,-0.137 ± 0.05
16,A43N,-0.014 ± 0.047
17,A43D,0.003 ± 0.049
18,A43K,-0.236 ± 0.1
19,A43T,0.045 ± 0.064
20,A43M,-0.044 ± 0.08
21,A43F,-0.357 ± 0.1
22,E15M,-0.262 ± 0.079
23,E15W,-0.856 ± 0.056

row,Variant,abundance fitness
1,E15R,-0.38 ± 0.051
2,E15Y,-0.46 ± 0.23
3,E15T,-0.32 ± 0.085
4,E15N,-0.449 ± 0.14
5,E15L,-0.55 ± 0.055
6,K44F,-0.186 ± 0.072
7,K44Q,-0.086 ± 0.077
8,K44S,-0.106 ± 0.05
9,K44Y,-0.041 ± 0.068
10,K44T,-0.2 ± 0.07
11,K44L,-0.061 ± 0.039
12,Y25L,-0.593 ± 0.053
13,Y25F,-0.148 ± 0.07
14,Y25E,-0.26 ± 0.082
15,Y25S,-0.119 ± 0.044
16,Y25T,-0.266 ± 0.061
17,Y25P,-0.367 ± 0.077
18,Y25I,-0.053 ± 0.09
19,Y25K,0.007 ± 0.083
20,Y25H,-0.192 ± 0.092
21,Y25C,-0.251 ± 0.069
22,Y25M,-0.033 ± 0.075
23,L49A,-0.003 ± 0.046

row,Variant,abundance fitness
1,L49M,0.154 ± 0.065
2,L49E,0.132 ± 0.066
3,L49P,-0.049 ± 0.064
4,L49Y,-0.048 ± 0.089
5,L49W,-0.239 ± 0.043
6,L49I,-0.232 ± 0.14
7,N38D,-0.158 ± 0.064
8,N38R,-0.079 ± 0.04
9,N38L,-0.271 ± 0.044
10,N38M,-0.116 ± 0.064
11,N38T,-0.341 ± 0.068
12,N38G,-0.45 ± 0.059
13,N38K,-0.444 ± 0.1
14,N38A,-0.146 ± 0.059
15,N38H,0.171 ± 0.057
16,P20E,-0.426 ± 0.33
17,P20W,-0.339 ± 0.35
18,P39E,-0.466 ± 0.057
19,P39H,-1.3 ± 0.28
20,P39L,-0.615 ± 0.048
21,P39M,-0.714 ± 0.086
22,P39I,-1.04 ± 0.23
23,P39C,-0.817 ± 0.12

row,Variant,abundance fitness
1,G23S,-0.79 ± 0.052
2,G23H,-0.822 ± 0.26
3,G23L,-1.13 ± 0.059
4,G23Q,-1.34 ± 0.1
5,G23P,-0.958 ± 0.14
6,R32D,0.067 ± 0.087
7,R32A,-0.249 ± 0.044
8,R32V,-0.333 ± 0.042
9,R32H,0.125 ± 0.1
10,R32P,-0.564 ± 0.045
11,R32W,-0.519 ± 0.053
12,R32G,-0.013 ± 0.039
13,R32F,-0.431 ± 0.063
14,L8W,-0.12 ± 0.07
15,L8S,-0.22 ± 0.07
16,L8G,-0.15 ± 0.049
17,L8Q,-0.016 ± 0.046
18,L8V,-0.266 ± 0.064
19,L8M,-0.023 ± 0.078
20,Y22N,-0.199 ± 0.12
21,Y22I,-0.162 ± 0.092
22,Y22D,-0.078 ± 0.069
23,Y22P,-0.24 ± 0.094

row,Variant,abundance fitness
1,Y22G,-0.027 ± 0.051
2,Y22Q,-0.156 ± 0.11
3,Y22C,-0.061 ± 0.055
4,Y22K,0.082 ± 0.055
5,Y22A,-0.041 ± 0.068
6,Y22T,-0.159 ± 0.091
7,Y22V,-0.051 ± 0.063
8,L4C,-0.593 ± 0.071
9,L4D,-0.682 ± 0.14
10,L4N,-0.333 ± 0.14
11,L4W,-0.237 ± 0.073
12,L10W,-0.553 ± 0.068
13,L10I,-0.148 ± 0.15
14,L10S,-0.382 ± 0.069
15,L10V,-0.221 ± 0.054
16,L10T,-0.608 ± 0.096
17,L10D,-0.705 ± 0.16
18,A12R,0.016 ± 0.041
19,A12M,-0.594 ± 0.15
20,A12I,0.02 ± 0.072
21,A12D,-0.09 ± 0.12
22,A12T,-0.145 ± 0.086
23,E18W,-0.745 ± 0.12

row,Variant,abundance fitness
1,E18I,-0.196 ± 0.11
2,E18Y,-0.39 ± 0.13
3,E18R,-0.461 ± 0.039
4,E18K,-0.269 ± 0.12
5,E18F,-0.263 ± 0.067
6,E18Q,-0.794 ± 0.45
7,E18S,-0.33 ± 0.081
8,E18P,-0.549 ± 0.13
9,Y26T,-0.457 ± 0.1
10,Y26A,-0.321 ± 0.044
11,Y26W,-0.257 ± 0.055
12,Y26V,-0.668 ± 0.05
13,Y26F,-0.137 ± 0.071
14,Y26I,-0.982 ± 0.15
15,Y26K,-0.563 ± 0.056
16,V21S,-0.165 ± 0.063
17,V21Y,-0.162 ± 0.063
18,V21L,0.026 ± 0.043
19,V21H,-0.232 ± 0.13
20,V21C,-0.038 ± 0.058
21,V21F,0.041 ± 0.12
22,V21A,0.097 ± 0.058
23,V21I,-0.034 ± 0.098
